From patent US20200181597A1, “Composition and Application of Arginine-depleting Agents for Cancer, Obesity, Metabolic Disorders, and Related Complications and Comorbidities” (THE HONG KONG POLYTECHNIC UNIVERSITY, priority 2018, published 2020)

Legend:
[1] = Normal lean mice on chow diet, 500U at 10-day intervals for 4 weeks; format: in vivo, C57BL/6J male mice
Excerpt: Thus, we treated normal lean C57BL/6J male mice fed an ordinary chow diet via i.p. injection of 500U N-ABD094-rhArg (SEQ ID NO: 50) at 10-day intervals for 4 weeks. After 4 weeks of treatment, there was over 25% reduction of visceral (perigondal, perirenal and mesenteric fad pad) and subcutaneous (inguinal fat pad) fat mass (FIG. 15A) in comparison with the control mice injected with the vehicle (saline).
(§1) Obesity is highly associated with insulin resistance. We therefore conducted both in vivo and in vitro study to determine whether N-ABD094-rhArg (SEQ ID NO: 50) treatment will have effects on insulin sensitivity. […] At 24-hour after culture in N-ABD094-rhArg (SEQ ID NO: 50) or control (without addition of N-ABD094-rhArg) medium, primary hepatocytes were stimulated with 100 nM insulin for 20 min. Cells were then collected for Western blot analysis to detect phosphorylated protein kinase B (pAkt), which is commonly used as marker of insulin signaling.

[2] = Blood pressure by tail cuff method in DIO mice; format: in vivo; settings: 600U at 7-day intervals for 5 weeks
Excerpt: Obesity is associated with cardiovascular disease and hypertension. DIO mice treated with 600U N-ABD094-rhArg (SEQ ID NO: 50) at 7-day intervals for 5 weeks were subjected to measurement of blood pressure by tail cuff method using the CODA Non-invasive Blood Pressure System (Kents Scientific Corporation).

[3] = Prevention of HFD-induced obesity, female mice; format: in vivo, C57BL/6J female mice; settings: 300U weekly
Excerpt: FIG. 21 illustrates that concurrent treatment with 300U N-ABD094-rhArg (SEQ ID, NO: 50) [HFD(rhArg) group] once a week could effectively prevent HFD-induced obesity in C57BL/6J female mice. (A) Bodyweight of mice fed a HFD from 8 week old for 12 weeks, and currently treated with N-ABD094-rhArg or vehicle. Vehicle-treated female mice fed a LFD served as the lean control [LFD(vehicle) group]. (B) Weight of fat pad at main visceral (perigonadal, perirenal and mesenteric) and subcutaneous (inguinal) depots. *P<0.05, one-way ANOVA followed by Fisher's LSD. Data are expressed as mean±SEM, n=5 for each group.
FIG. 22 illustrates that concurrent treatment with 300U N-ABD094-rhArg (SEQ ID NO: 50) [HFD(rhArg) group] once a week could effectively prevent HFD-induced insulin resistance and glucose intolerance in C57BL/6J female mice. (A) Insulin tolerance test (ITT) conducted at 7 week after feeding a HFD. (B) Glucose tolerance test (GTT) conducted at 11 week after feeding a HFD. ITT and GTT results are expressed as area under the curve (AUC). *P<0.05, one-way ANOVA followed by Fisher's LSD. Data are expressed as mean±SEM, n=5 for each group.
After confirming the anti-obesity effect of N-ABD094-rhArg (SEQ ID NO: 50) on male mice, the effect of N-ABD094-rhArg (SEQ ID NO: 50) on female mice (n=5 in each group) was studied to determine if there was any sex difference.

[4] = DIO mice treated with 600U for 20 weeks; format: in vivo, C57BL/6J male mice
Excerpt: Together, these findings support that N-ABD094-rhArg (SEQ ID NO: 50) is safe and effective for long term use.

[5] = tested on: HCT116; test: cells; settings: HCT116, Day 3
Protocol: (§2) The in vitro efficacy of ABD and rhArg fusion protein was tested on human colon cancer cell lines. Human colon cancer cell lines (HCT116, LOVO and HT29) were seeded in 96-well plate at densities of 5×10^3 cells/well. After 1 day of incubation, the culture medium was replaced with medium containing different concentrations (2, 0.4, 0.08, 0.016 and 0.0032 U/ml) of N-ABD094-rhArg (SEQ ID NO: 50). MTT assay was conducted at Day 3 [3 days after N-ABD094-rhArg (SEQ ID NO: 50) treatment] to determine the IC50 values. The culture medium was replaced with MTT solution (1 mg/ml) (Invitrogen) and incubated at 37° C. for 4 h. After incubation, MTT solution was replaced with dimethyl sulfoxide (DMSO), and the absorbance at 570 nm was measured with a reference of 650 nm. The cell viability was determined by dividing the absorbance of N-ABD094-rhArg-treated cells by the average absorbance of untreated cells. […] Three independent sets of experiments (n=3) were performed for each cell line.
(§3) MTT assay was conducted at Day 3. Three independent sets of experiments (n=3) were performed for each cell line.
(§4) For drug-combination assay, a non-constant ratio analysis was performed (Hastak et al., 2010, Cancer Res. 70(20):7970-7980). Colon cancer cells were seeded and after 1 day of incubation, the culture medium was replaced with medium containing different concentrations of N-ABD094-rhArg (SEQ ID NO: 50) (2, 0.4, 0.08, 0.016, 0.0032 U/ml) combined with fixed amount of CQ according to its IC50. MTT assay was conducted at Day 3. The combination index (CI) of combined N-ABD094-rhArg (SEQ ID NO: 50) and CQ treatment was analyzed by software CalcuSyn version 2.1. Three independent sets of experiments (n=3) were performed for each cell line.

[6] = tested on: HT29; test: cells; settings: HT29, Day 3
Protocol: as §2, §3, §4

[7] = tested on: LOVO; test: cells; settings: LOVO, Day 3
Protocol: as §2, §3, §4

[8] = tested on: mouse primary hepatocytes; test: Mouse primary hepatocytes: MTT viability and pAkt Western blot; format: cell-based
Protocol: Data are expressed as mean±SEM, n=5 for each group. […] (C) Western blot analysis of protein levels of phosphorylated Akt (pAkt) (marker of insulin signaling) in […] […] Lane 1: con; Lane 2: 5U/mL N-ABD094-rhArg (SEQ ID NO: 50); Lane 3: 100 nM insulin; Lane 4: 5U/mL N-ABD094-rhArg (SEQ ID NO: 50) +100 nM insulin.
as §1, with “At 24-hour after culture in N-ABD094-rhArg (SEQ ID NO: 50) or control (without addition of N-ABD094-rhArg) medium, primary hepatocytes were stimulated with 100 nM insulin for 20 min.” left out

[9] = 500U at 10-day intervals, 4 weeks

B1: N-ABD094-rhArg: albumin binding domain ABD094 fused N-terminally to recombinant human arginase I, SEQ ID NO: 50 (protein)
chain: MHHHHHHDEAVDANSLAEAKEAANAELDSYGVSDFYKRLIDKAKTVEGVEALKDAILAALPSGSNNNNNNGSGGMSAKSRTIGIIGAPFSKGQPRGGVEEGPTVLRKAGLLEKLKEQECDVKDYGDLPFADIPNDSPFQIVKNPRSVGKASEQLAGKVAEVKKNGRISLVLGGDHSLAIGSISGHARVHPDLGVIWVDAHTDINTPLTTTSGNLHGQPVSFLLKELKGKIPDVPGFSWVTPCISAKDIVYIGLRDVDPGEHYILKTLGIKYFSMTEVDRLGIGKVMEETLSYLLGRKKRPIHLSFDVDGLDPSFTPATGTPVVGGLTYREGLYITEEIYKTGLLSGLDIMEVNPSLGKTPEEVTRTVNTAVAITLACFGLAREGNHKPIDYLNPPK
modifications: Mn2+; N-ABD094-rhArg, Synthesized in the Lab
- mRNA levels of Acc1, Fasn, Scd1 in visceral WAT and liver [1, 9]: dramatically suppressed
- size of adipocytes in visceral WAT (histology) [1, 9]: prominent reduction
- reduction of visceral and subcutaneous fat mass vs vehicle ([1]; 500U i.p. at 10-day intervals, after 4 weeks): over 25%
- insulin sensitivity in insulin tolerance test (ITT) ([1]; after 2 weeks of treatment): significant increase
- systolic and diastolic blood pressure and heart rate vs vehicle-treated DIO mice [2]: significantly lower
- protection from weight gain and excessive accumulation of WAT ([3]; 12 weeks): similarly effective
- insulin sensitivity (ITT) and glucose tolerance (GTT) ([3]; ITT week 7, GTT week 11): improve
- plasma arginine concentrations ([4]; 600U for 20 weeks, Biochrom 30 detection limit): < 3 µM
- bodyweight ([4]; 600U, by 5 weeks, maintained to 20 weeks without rebound): reduced to a level similar to the lean control mice
- IC50 [5]: 0.22 U/ml
- IC50 [6]: 0.58 U/ml
- IC50 [7]: 0.38 U/ml
- phosphorylation of Akt upon insulin stimulation ([8]; 5U/mL 24 hr, then 100 nM insulin 20 min): prominent increase
- cell viability (MTT) ([8]; 5U/mL, 48 hr): did not affect cell viability
